# Assay results published in patent publication US20240400651A1.
# B1: Mab #25 (antibody, V domains shown)
# VH: EVQLVESGAEVKKPGESLKISCKGSGYTFTRYWIGWVRQMPGKGLEWMGIIYPGDSDTRYSPSFQGHVTISADKSISTAYLQWNSLKASDTAMYYCARLPQYCSNGVCQRWFDPWGQGTLVTVSS
# VL: EIVLTQSPSSVSASVGDRVTITCRASQGISSWLAWYQQKPGKAPKLLIYAASSLQSGVPSRFSGSGSGTDFTLTISSLQPEDFATYYCQQGNSFPYTFGQGTNLEIK
# Target: Spike proteins of the wild-type Wuhan-Hu-1 strain and the D614G, B.1.1.7, B.1.351, P.1, B.1.526 and
# Assay: cell-based or functional assay
binder,measurement,value
B1,"IC50, infectivity assays using pseudoviruses",0.05 to 0.2 µg/mL
